This is an account of results in US20110091994A1, “Methods for Screening Compounds for Treating and/or Preventing an Hepatitis C Virus Infection” (priority 2008, published 2011).

First the molecules themselves.
B1: MMRN2 (protein, UniProt Q9H8L6 23-949, looked up)
Multimerin-2: QASSTSLSDLQSSRTPGVWKAEAEDTGKDPVGRNWCPYPMSKLVTLLALCKTEKFLIHSQQPCPQGAPDCQKVKVMYRMAHKPVYQVKQKVLTSLAWRCCPGYTGPNCEHHDSMAIPEPADPGDSHQEPQDGPVSFKPGHLAAVINEVEVQQEQQEHLLGDLQNDVHRVADSLPGLWKALPGNLTAAVMEANQTGHEFPDRSLEQVLLPHVDTFLQVHFSPIWRSFNQSLHSLTQAIRNLSLDVEANRQAISRVQDSAVARADFQELGAKFEAKVQENTQRVGQLRQDVEDRLHAQHFTLHRSISELQADVDTKLKRLHKAQEAPGTNGSLVLATPGAGARPEPDSLQARLGQLQRNLSELHMTTARREEELQYTLEDMRATLTRHVDEIKELYSESDETFDQISKVERQVEELQVNHTALRELRVILMEKSLIMEENKEEVERQLLELNLTLQHLQGGHADLIKYVKDCNCQKLYLDLDVIREGQRDATRALEETQVSLDERRQLDGSSLQALQNAVDAVSLAVDAHKAEGERARAATSRLRSQVQALDDEVGALKAAAAEARHEVRQLHSAFAALLEDALRHEAVLAALFGEEVLEEMSEQTPGPLPLSYEQIRVALQDAASGLQEQALGWDELAARVTALEQASEPPRPAEHLEPSHDAGREEAATTALAGLARELQSLSNDVKNVGRCCEAEAGAGAASLNASLHGLHNALFATQRSLEQHQRLFHSLFGNFQGLMEANVSLDLGKLQTMLSRKGKKQQKDLEAPRKRDKKEAEPLVDIRVTGPVPGALGAALWEAGSPVAFYASFSEGTAALQTVKFNTTYINIGSSYFPEHGYFRAPERGVYLFAVSVEFGPGPGTGQLVFGGHHRTPVCTTGQGSGSTATVFAMAELQKGERVWFELTQGSITKRSLSGTAFGGFLMFKT
B2: PLEKHG4 (protein, UniProt Q58EX7 1-1191, looked up)
Puratrophin-1: MERPLENGDESPDSQGHATDWRFAVCSFRDAWEEEEPASQMHVKDPGPPRPPAGATQDEELQGSPLSRKFQLPPAADESGDAQRGTVESSSVLSEGPGPSGVESLLCPMSSHLSLAQGESDTPGVGLVGDPGPSRAMPSGLSPGALDSDPVGLGDPLSEISKLLEAAPSGSGLPKPADCLLAQDLCWELLASGMATLPGTRDVQGRAVLLLCAHSPAWLQSECSSQELIRLLLYLRSIPRPEVQALGLTVLVDARICAPSSSLFSGLSQLQEAAPGAVYQVLLVGSTLLKEVPSGLQLEQLPSQSLLTHIPTAGLPTSLGGGLPYCHQAWLDFRRRLEALLQNCQAACALLQGAIESVKAVPQPMEPGEVGQLLQQTEVLMQQVLDSPWLAWLQCQGGRELTWLKQEVPEVTLSPDYRTAMDKADELYDRVDGLLHQLTLQSNQRIQALELVQTLEARESGLHQIEVWLQQVGWPALEEAGEPSLDMLLQAQGSFQELYQVAQEQVRQGEKFLQPLTGWEAAELDPPGARFLALRAQLTEFSRALAQRCQRLADAERLFQLFREALTWAEEGQRVLAELEQERPGVVLQQLQLHWTRHPDLPPAHFRKMWALATGLGSEAIRQECRWAWARCQDTWLALDQKLEASLKLPPVGSTASLCVSQVPAAPAHPPLRKAYSFDRNLGQSLSEPACHCHHAATIAACRRPEAGGGALPQASPTVPPPGSSDPRSLNRLQLVLAEMVATEREYVRALEYTMENYFPELDRPDVPQGLRGQRAHLFGNLEKLRDFHCHFFLRELEACTRHPPRVAYAFLRHRVQFGMYALYSKNKPRSDALMSSYGHTFFKDKQQALGDHLDLASYLLKPIQRMGKYALLLQELARACGGPTQELSALREAQSLVHFQLRHGNDLLAMDAIQGCDVNLKEQGQLVRQDEFVVRTGRHKSVRRIFLFEELLLFSKPRHGPTGVDTFAYKRSFKMADLGLTECCGNSNLRFEIWFRRRKARDTFVLQASSLAIKQAWTADISHLLWRQAVHNKEVRMAEMVSMGVGNKAFRDIAPSEEAINDRTVNYVLKCREVRSRASIAVAPFDHDSLYLGASNSLPGDPASCSVLGSLNLHLYRDPALLGLRCPLYPSFPEEAALEAEAELGGQPSLTAEDSEISSQCPSASGSSGSDSSCVSGQALGRGLEDLPCV
B3: PCYT2 (protein, UniProt Q99447 1-389, looked up)
Ethanolamine-phosphate …: MIRNGRGAAGGAEQPGPGGRRAVRVWCDGCYDMVHYGHSNQLRQARAMGDYLIVGVHTDEEIAKHKGPPVFTQEERYKMVQAIKWVDEVVPAAPYVTTLETLDKYNCDFCVHGNDITLTVDGRDTYEEVKQAGRYRECKRTQGVSTTDLVGRMLLVTKAHHSSQEMSSEYREYADSFGKCPGGRNPWTGVSQFLQTSQKIIQFASGKEPQPGETVIYVAGAFDLFHIGHVDFLEKVHRLAERPYIIAGLHFDQEVNHYKGKNYPIMNLHERTLSVLACRYVSEVVIGAPYAVTAELLSHFKVDLVCHGKTEIIPDRDGSDPYQEPKRRGIFRQIDSGSNLTTDLIVQRIITNRLEYEARNQKKEAKELAFLEAARQQAAQPLGERDGDF
B4: PICK1 (protein, UniProt Q9NRD5 1-415, looked up)
PRKCA-binding protein: MFADLDYDIEEDKLGIPTVPGKVTLQKDAQNLIGISIGGGAQYCPCLYIVQVFDNTPAALDGTVAAGDEITGVNGRSIKGKTKVEVAKMIQEVKGEVTIHYNKLQADPKQGMSLDIVLKKVKHRLVENMSSGTADALGLSRAILCNDGLVKRLEELERTAELYKGMTEHTKNLLRAFYELSQTHRAFGDVFSVIGVREPQPAASEAFVKFADAHRSIEKFGIRLLKTIKPMLTDLNTYLNKAIPDTRLTIKKYLDVKFEYLSYCLKVKEMDDEEYSCIALGEPLYRVSTGNYEYRLILRCRQEARARFSQMRKDVLEKMELLDQKHVQDIVFQLQRLVSTMSKYYNDCYAVLRDADVFPIEVDLAHTTLAYGLNQEEFTDGEEEEEEEDTAAGEPSRDTRGAAGPLDKGGSWCDS
B5: PDLIM5 (protein, UniProt Q96HC4 2-596, looked up)
PDZ and LIM domain protein 5: SNYSVSLVGPAPWGFRLQGGKDFNMPLTISSLKDGGKAAQANVRIGDVVLSIDGINAQGMTHLEAQNKIKGCTGSLNMTLQRASAAPKPEPVPVQKGEPKEVVKPVPITSPAVSKVTSTNNMAYNKAPRPFGSVSSPKVTSIPSPSSAFTPAHATTSSHASPSPVAAVTPPLFAASGLHANANLSADQSPSALSAGKTAVNVPRQPTVTSVCSETSQELAEGQRRGSQGDSKQQNGPPRKHIVERYTEFYHVPTHSDASKKRLIEDTEDWRPRTGTTQSRSFRILAQITGTEHLKESEADNTKKANNSQEPSPQLASSVASTRSMPESLDSPTSGRPGVTSLTAAAAFKPVGSTGVIKSPSWQRPNQGVPSTGRISNSATYSGSVAPANSALGQTQPSDQDTLVQRAEHIPAGKRTPMCAHCNQVIRGPFLVALGKSWHPEEFNCAHCKNTMAYIGFVEEKGALYCELCYEKFFAPECGRCQRKILGEVISALKQTWHVSCFVCVACGKPIRNNVFHLEDGEPYCETDYYALFGTICHGCEFPIEAGDMFLEALGYTWHDTCFVCSVCCESLEGQTFFSKKDKPLCKKHAHSVNF
B6: PKNOX1 (protein, UniProt P55347 1-436, looked up)
Homeobox protein PKNOX1: MMATQTLSIDSYQDGQQMQVVTELKTEQDPNCSEPDAEGVSPPPVESQTPMDVDKQAIYRHPLFPLLALLFEKCEQSTQGSEGTTSASFDVDIENFVRKQEKEGKPFFCEDPETDNLMVKAIQVLRIHLLELEKVNELCKDFCSRYIACLKTKMNSETLLSGEPGSPYSPVQSQQIQSAITGTISPQGIVVPASALQQGNVAMATVAGGTVYQPVTVVTPQGQVVTQTLSPGTIRIQNSQLQLQLNQDLSILHQDDGSSKNKRGVLPKHATNVMRSWLFQHIGHPYPTEDEKKQIAAQTNLTLLQVNNWFINARRRILQPMLDSSCSETPKTKKKTAQNRPVQRFWPDSIASGVAQPPPSELTMSEGAVVTITTPVNMNVDSLQSLSSDGATLAVQQVMMAGQSEDESVDSTEEDAGALAPAHISGLVLENSDSLQ
B7: PNPLA8 (protein, UniProt Q9NP80 1-782, looked up)
Calcium-independent …: MSINLTVDIYIYLLSNARSVCGKQRSKQLYFLFSPKHYWRISHISLQRGFHTNIIRCKWTKSEAHSCSKHCYSPSNHGLHIGILKLSTSAPKGLTKVNICMSRIKSTLNSVSKAVFGNQNEMISRLAQFKPSSQILRKVSDSGWLKQKNIKQAIKSLKKYSDKSAEKSPFPEEKSHIIDKEEDIGKRSLFHYTSSITTKFGDSFYFLSNHINSYFKRKEKMSQQKENEHFRDKSELEDKKVEEGKLRSPDPGILAYKPGSESVHTVDKPTSPSAIPDVLQVSTKQSIANFLSRPTEGVQALVGGYIGGLVPKLKYDSKSQSEEQEEPAKTDQAVSKDRNAEEKKRLSLQREKIIARVSIDNRTRALVQALRRTTDPKLCITRVEELTFHLLEFPEGKGVAVKERIIPYLLRLRQIKDETLQAAVREILALIGYVDPVKGRGIRILSIDGGGTRGVVALQTLRKLVELTQKPVHQLFDYICGVSTGAILAFMLGLFHMPLDECEELYRKLGSDVFSQNVIVGTVKMSWSHAFYDSQTWENILKDRMGSALMIETARNPTCPKVAAVSTIVNRGITPKAFVFRNYGHFPGINSHYLGGCQYKMWQAIRASSAAPGYFAEYALGNDLHQDGGLLLNNPSALAMHECKCLWPDVPLECIVSLGTGRYESDVRNTVTYTSLKTKLSNVINSATDTEEVHIMLDGLLPPDTYFRFNPVMCENIPLDESRNEKLDQLQLEGLKYIERNEQKMKKVAKILSQEKTTLQKINDWIKLKTDMYEGLPFFSKL

For one experiment, the target named is T1, HCV proteins (Hepatitis C virus genotype 1b, UniProt Q9WMX2).
T1 construct: expressed in transfected cells
Kind of experiment: Validation by Y2H pairwise matrices.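 Further: yeast two-hybrid pairwise tests of interactions first found in Y2H screens of HCV bait proteins against human cDNA libraries.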 Type of experiment: binding. As to conditions: validation of interaction with HCV protein CORE.
As to B1, the Y2H matrices entry is reported as “+”.

Still in this experiment, the particulars now being: validation of interaction with HCV protein NS3.
For B2, the Y2H matrices result is given as “+”.
As for B3, the Y2H matrices result is reported as “+”.
Same read-out and setting: with B4 the entry was “+”.
B5: the Y2H matrices entry is recorded as “+”.
Regarding B6, the Y2H matrices result is given as “+”.
With B7, the Y2H matrices entry is given as “+”.

The next experiment deals with HCV ORFs (Gal4-DB fusions).
Assay: not given
The experiment is classed as binding, HCV genotype 1b, isolate con1. The note with it: human protein listed by gene symbol; the value names the HCV protein it interacts with.
Turning to B2, the “Interaction with viral protein” value is recorded as “NS3”.
Take B3: the “Interaction with viral protein” value is recorded as “NS3”.
For B4, the “Interaction with viral protein” value was “NS3”.
As to B5, the “Interaction with viral protein” value was “NS3”.
Still for that read-out and setting: with B6 the entry was “NS3”; with B1, “CORE”.
Regarding B7, the “Interaction with viral protein” value is “NS3”.

The target of a further experiment is T2, HCV ORFs (Gal4-DB fusions) (Hepatitis C virus genotype 1b, UniProt Q9WMX2).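 Further: yeast two-hybrid screens using HCV genotype 1b proteins fused to Gal4-DB as baits against prey cDNA libraries from human spleen and foetal brain, IMAP1 via transformation and IMAP2 via mating.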
T2 construct: expressed in transfected cells; host or cells: Saccharomyces cerevisiae MAV203 (IMAP1) / AH109 (IMAP2)
Assay: not given
The experiment is classed as binding, HCV genotype 1b, isolate con1. As to conditions: HCV protein CORE as bait; human protein as prey.
As to B1, the “IMAP Y2H IMAP1 (number of IST)” value turned out to be 1.

The experiment is the same for the next values; noted with them: HCV protein NS3 as bait; human protein as prey.
Turning to B2, the “IMAP Y2H IMAP1 (number of IST)” value came to 1.
Consider B3, for which the “IMAP Y2H IMAP1 (number of IST)” value is reported as 1.
Still for that read-out and setting: the figure for B4 is 3; for B5 it is 1; for B6 it is 1.
As for B7, the “IMAP Y2H IMAP1 (number of IST)” value was determined as 1.
